Assay [1] has as its target AKT1 kinase domain (WT) fused to the Gal4 DNA binding domain (UniProt P04386). The assay can be described thus: cell-based or functional assay.
Assay [2] deals with AKT1 D323H kinase domain fused to the Gal4 DNA binding domain (UniProt P04386). The assay can be described thus: cell-based or functional assay.

As for “AKT1 L52R PH domain fused to the VP16 activation domain (from UniProt P31749 5-108)”, the luciferase reporter interaction signal in mammalian 2-hybrid assay, compared to WT-PH/WT-KD or E17K-PH/WT-KD in assay [1] was 50 % reduction.
In turn, “AKT1 PH domain (WT) fused to the VP16 activation domain (from UniProt P31749 5-108)” yielded a luciferase reporter interaction signal in mammalian 2-hybrid assay, compared to WT-PH/WT-KD or E17K-PH/WT-KD in assay [2] of 50 % reduction.

(Values after patent US20140031259A1.)
